pKd: −log10 of the molar value.
Molecular target: HaHV1 UL36h NLS peptide (residues 1491-1500), FITC/Ahx-labelled (haliotid herpesvirus 1 (HaHV1))
Experiment: fluorescence polarisation

| Substance | pKd |
| --- | --- |
| human importin α1 lacking the importin-β binding domain (hIMPα1ΔIBB) (domain or fragment) | 6.65 |
| human importin α3 lacking the importin-β binding domain (hIMPα3ΔIBB) (domain or fragment) | 6.71 |

Reference: publication PMC12474298
